These results are taken from patent publication US20230151091A1 (NEW YORK UNIVERSITY, published 2023).

Assay [1] concerns the target T1, mFz: Fz domain and C-terminal flanking sequence of mouse MuSK (D307 to T494) with C-terminal Avi- and … (mouse, UniProt Q61006 307-494, limits assumed, biotinylated in vitro using the BirA enzyme).
T1 construct: also called mouse Fz; not shown: Avi- and His6-tags
T1 sequence (looked up): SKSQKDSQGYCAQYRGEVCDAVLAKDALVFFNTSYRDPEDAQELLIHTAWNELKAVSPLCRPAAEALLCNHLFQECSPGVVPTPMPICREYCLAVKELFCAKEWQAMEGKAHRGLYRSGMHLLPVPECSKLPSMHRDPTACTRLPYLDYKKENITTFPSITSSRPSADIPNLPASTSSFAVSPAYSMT
Briefly: bead-binding assay, IgG format: biotinylated antigen on streptavidin beads, flow cytometry, 1:1 fit; average ± s.d., n=3. Background: In flow cytometry, cells or beads pass a laser one at a time.

Assay [2] addresses T2, hECD: full-length extracellular region of human MuSK (E22 to T495) with C-terminal Avi- and His6-tags (human, UniProt O15146 22-495, biotinylated in vitro using the BirA enzyme).
T2 construct: also called human ECD; not shown: Avi- and His6-tags
T2 sequence: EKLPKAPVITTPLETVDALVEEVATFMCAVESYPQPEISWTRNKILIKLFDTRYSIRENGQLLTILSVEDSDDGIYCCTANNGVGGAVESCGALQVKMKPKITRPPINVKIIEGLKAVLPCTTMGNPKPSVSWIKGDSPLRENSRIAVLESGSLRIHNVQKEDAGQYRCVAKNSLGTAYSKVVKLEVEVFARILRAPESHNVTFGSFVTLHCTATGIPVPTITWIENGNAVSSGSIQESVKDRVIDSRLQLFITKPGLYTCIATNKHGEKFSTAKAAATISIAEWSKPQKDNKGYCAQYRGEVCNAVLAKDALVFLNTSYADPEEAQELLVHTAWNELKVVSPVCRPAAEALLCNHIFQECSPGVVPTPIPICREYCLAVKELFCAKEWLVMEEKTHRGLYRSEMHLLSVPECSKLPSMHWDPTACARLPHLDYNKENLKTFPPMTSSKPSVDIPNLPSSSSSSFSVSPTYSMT
The description is as above.

The target in assay [3] is T3, mECD: full-length extracellular region of mouse MuSK (E22 to T494) with C-terminal Avi- and His6-tags (mouse, UniProt Q61006 22-494, biotinylated in vitro using the BirA enzyme).
T3 construct: range 22-494; also called mouse ECD; not shown: Avi- and His6-tags
T3 sequence (looked up): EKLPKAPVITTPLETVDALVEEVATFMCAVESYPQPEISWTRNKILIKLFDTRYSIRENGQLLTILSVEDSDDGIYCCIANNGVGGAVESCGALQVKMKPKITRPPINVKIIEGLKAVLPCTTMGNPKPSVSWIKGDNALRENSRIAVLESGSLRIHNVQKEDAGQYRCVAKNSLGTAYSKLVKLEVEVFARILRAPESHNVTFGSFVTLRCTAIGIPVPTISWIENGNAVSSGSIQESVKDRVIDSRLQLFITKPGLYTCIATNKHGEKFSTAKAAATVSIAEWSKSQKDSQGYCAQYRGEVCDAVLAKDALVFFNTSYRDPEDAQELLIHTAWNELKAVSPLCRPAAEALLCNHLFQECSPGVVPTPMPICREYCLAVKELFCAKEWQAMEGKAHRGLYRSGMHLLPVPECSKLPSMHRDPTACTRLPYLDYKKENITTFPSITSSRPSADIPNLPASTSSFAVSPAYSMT
Described as above.

Assay [4] concerns the target T4, hFz: Fz domain and C-terminal flanking sequence of human MuSK (K314-T495) with C-terminal Avi- and His6-tags (human, UniProt O15146 314-495, biotinylated in vitro using the BirA enzyme).
T4 construct: also called human Fz; not shown: Avi- and His6-tags
T4 sequence: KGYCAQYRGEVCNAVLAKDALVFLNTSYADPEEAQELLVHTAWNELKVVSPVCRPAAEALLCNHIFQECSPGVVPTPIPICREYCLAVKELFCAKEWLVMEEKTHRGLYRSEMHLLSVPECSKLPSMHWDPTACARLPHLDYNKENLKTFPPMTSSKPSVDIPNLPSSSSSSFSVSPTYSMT
The description is as above.

Assay [5] concerns the target T1, mFz: Fz domain and C-terminal flanking …. Briefly: bead-binding titration, IgG format: antigen immobilized on streptavidin beads, MFI by flow cytometry, curve is the 1:1 fit.
In assay [6] the target is T3, mECD: full-length extracellular region …. Described as above.
Assay [7] has as its target T5, human MuSK (human, UniProt O15146 24-495).
T5 construct: Recombinant protein coated on ELISA plates (R&D Systems cat. 10189-MK) or on the Biacore chip; also called human muscle-specific tyrosine protein kinase; full length human MuSK
T5 sequence: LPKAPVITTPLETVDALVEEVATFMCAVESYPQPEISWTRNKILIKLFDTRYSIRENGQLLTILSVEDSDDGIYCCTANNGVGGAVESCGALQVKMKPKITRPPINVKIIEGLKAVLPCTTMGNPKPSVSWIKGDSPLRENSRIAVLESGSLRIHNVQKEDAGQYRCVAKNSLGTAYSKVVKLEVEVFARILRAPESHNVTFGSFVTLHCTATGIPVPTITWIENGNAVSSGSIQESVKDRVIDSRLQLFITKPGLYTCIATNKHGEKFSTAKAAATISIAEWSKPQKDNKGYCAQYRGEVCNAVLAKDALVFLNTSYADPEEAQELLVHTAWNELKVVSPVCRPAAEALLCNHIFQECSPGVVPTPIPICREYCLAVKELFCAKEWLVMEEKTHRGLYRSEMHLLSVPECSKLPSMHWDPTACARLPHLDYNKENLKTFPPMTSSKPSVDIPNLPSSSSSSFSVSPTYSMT
In words: Biacore T200, off rate at pH 5.5 against pH 7.4. On the procedure:
(§1) In order to study pH dependent binding of the antibodies described herein to MuSK, a Biacore T200 was used. Briefly, a CMS chip was coated with human and mouse MuSK (200RU) and 22.2 nM of Fab was applied and kinetic parameters calculated. Association was done at pH7.4, dissociation was done at pH 7.4 and also at pH 5.5. The following Fabs were tested, X2, X2m4, X3, X9, X17, 3B2 and 3B2g2m1 (Table 10 and FIG. 23). […] Binding affinity at pH 5.5 is very low, resulting in a rapid dissociation at endosomal pH allowing 3B2g2m1 to recycle.

The target of assay [8] is T6, mouse MuSK (mouse, UniProt Q61006 22-494, limits assumed).
T6 construct: Coated on ELISA plates or on the Biacore chip; also called full length mouse MuSK; mouse MuSK (in house produced in HEK293 cells)
T6 sequence (looked up): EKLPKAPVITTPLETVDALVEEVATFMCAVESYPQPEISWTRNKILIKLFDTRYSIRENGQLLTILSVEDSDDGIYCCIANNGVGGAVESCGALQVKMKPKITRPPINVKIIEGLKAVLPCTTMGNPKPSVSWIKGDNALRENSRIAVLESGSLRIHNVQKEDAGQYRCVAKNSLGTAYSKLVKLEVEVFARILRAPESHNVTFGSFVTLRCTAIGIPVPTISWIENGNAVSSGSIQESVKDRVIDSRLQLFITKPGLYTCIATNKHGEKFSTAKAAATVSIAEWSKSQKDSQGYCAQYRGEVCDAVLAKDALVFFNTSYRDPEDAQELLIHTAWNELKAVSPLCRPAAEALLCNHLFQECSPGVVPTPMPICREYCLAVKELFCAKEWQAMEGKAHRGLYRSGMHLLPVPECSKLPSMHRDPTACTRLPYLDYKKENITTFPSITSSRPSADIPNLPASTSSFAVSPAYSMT
Briefly: Biacore T200, off rate at pH 5.5 against pH 7.4. The procedure: as §1
(In general: Surface plasmon resonance follows binding to a sensor surface in real time, without labels.)

For assay [9], the target named is T5, human MuSK. In words: Biacore T200, MuSK on chip (200RU), 22.2 nM Fab, dissociation pH 5.5. On the procedure: as §1
For assay [10], the target named is T6, mouse MuSK. Described as above. On the procedure:
as §1

Assay [11] deals with T5, human MuSK. Briefly: Biacore T200, MuSK on chip (200RU), 22.2 nM Fab, dissociation pH 7.4. On the procedure: as §1
Assay [12] addresses T6, mouse MuSK. The description is as above. The procedure: as §1
Assay [13] addresses T1, mFz: Fz domain and C-terminal flanking …. In words: bead-binding assay, Fab format: biotinylated antigen on streptavidin beads, flow cytometry, 1:1 fit; average ± s.d., n=3.
The target in assay [14] is T2, hECD: full-length extracellular region …. The assay is described as above.
The target of assay [15] is T3, mECD: full-length extracellular region …. The assay is described as above.
Assay [16] deals with T4, hFz: Fz domain and C-terminal flanking …. Described as above.
The target of assay [17] is T1, mFz: Fz domain and C-terminal flanking …. Briefly: bead-binding titration, Fab format: antigen immobilized on streptavidin beads, MFI by flow cytometry, curve is the 1:1 fit.
In assay [18] the target is T4, hFz: Fz domain and C-terminal flanking …. The description is as above.

B1: mIgG2a-X3 (antibody, V domains shown)
VH: EVQLVESGGGLVQPGGSLRLSCAASGFTISSSSIHWVRQAPGKGLEWVASISSSSGYTYYADSVKGRFTISADTSKNTAYLQMNSLRAEDTAVYYCARSWYEMWMSGYFGFDYWGQGTLVTVSS
VL: DIQMTQSPSSLSASVGDRVTITCRASQSVSSAVAWYQQKPGKAPKLLIYSASSLYSGVPSRFSGSRSGTDFTLTISSLQPEDFATYYCQQSSSSLITFGQGTKVEIK
notes: mouse IgG2a format; also called X3 in mouse IgG2a format
For the molecule B1, the Kd (usually the constant that tells how readily two partners part at equilibrium) in [1] is 0.096 nM; in [2] it was 0.113 nM; in [3], 0.118 nM; in [4], 0.079 nM. Moreover, the “EC50 (read off the curve)” value in [5] and in assay [6] was around 0.1 nM in each case.

B2: hIgG1-X2 (antibody, V domains shown)
VH: EVQLVESGGGLVQPGGSLRLSCAASGFTVSSSSIHWVRQAPGKGLEWVASISSSYGSTSYADSVKGRFTISADTSKNTAYLQMNSLRAEDTAVYYCARSEGDRYVSGYMGMDYWGQGTLVTVSS
VL: DIQMTQSPSSLSASVGDRVTITCRASQSVSSAVAWYQQKPGKAPKLLIYSASSLYSGVPSRFSGSRSGTDFTLTISSLQPEDFATYYCQQSGVWLITFGQGTKVEIK
notes: human IgG1 Fc containing LALA mutations; also called hIgG-X2; X2 in the human IgG1 format
On to B2, for which the dissociation constant Kd in assay [1] was 0.265 nM; in assay [2], 0.478 nM; in [3], 0.307 nM; in [4] it was 0.421 nM. Also, the half-maximal effective concentration (EC50 (read off the curve)) – broadly, the concentration that produces a half-maximal response – in [5] was around 0.3 nM; in [6] it was around 0.4 nM.

B3: X17 Fab (Fab, V domains shown)
VH: EVQLVESGGGLVQPGGSLRLSCAASGFTISYSSIHWVRQAPGKGLEWVASIYSSSGSTYYADSVKGRFTISADTSKNTAYLQMNSLRAEDTAVYYCARGDHGYYVFGYLGMDYWGQGTLVTVSS
VL: DIQMTQSPSSLSASVGDRVTITCRASQSVSSAVAWYQQKPGKAPKLLIYSASSLYSGVPSRFSGSRSGTDFTLTISSLQPEDFATYYCQQSYKPGALITFGQGTKVEIK
notes: Fab format
Regarding B3, the “Ratio pH 5.5/7.4 of off rate” value came out at 7.7 in [7] and 1.7 in assay [8]. Further, the koff (commonly a measure of how fast the partners let go of each other) in assay [9] was 0.00678 s⁻¹; in [10], 0.002 s⁻¹; in [11], 0.00088 s⁻¹; in [12], 0.0012 s⁻¹. Further, the Kd in assay [13] amounted to 0.47 nM; in assay [14], 0.52 nM; in assay [15], 0.63 nM; in assay [16], 0.38 nM. For the same molecule, the results for the “EC50 (read off the curve)” value in [17] and in [18] were around 0.3 nM and around 0.4 nM, respectively.
